Experimental data taken from patent US20160122768A1 (LA JOLLA INSTITUTE FOR ALLERGY AND IMMUNOLOGY, published 2016).

T1: C-terminally HA-tagged wild type (WT) RPTPκ (NM 008983.2), full-length, immunoprecipitated from COS-1 cells (UniProt P35822 26-1457)
T1 construct: It was held on anti-HA immunoprecipitate beads in the assay; also called HA-tagged WT RPTPκ; full-length RPTPk; not shown: C-terminal HA tag
T1 sequence (looked up): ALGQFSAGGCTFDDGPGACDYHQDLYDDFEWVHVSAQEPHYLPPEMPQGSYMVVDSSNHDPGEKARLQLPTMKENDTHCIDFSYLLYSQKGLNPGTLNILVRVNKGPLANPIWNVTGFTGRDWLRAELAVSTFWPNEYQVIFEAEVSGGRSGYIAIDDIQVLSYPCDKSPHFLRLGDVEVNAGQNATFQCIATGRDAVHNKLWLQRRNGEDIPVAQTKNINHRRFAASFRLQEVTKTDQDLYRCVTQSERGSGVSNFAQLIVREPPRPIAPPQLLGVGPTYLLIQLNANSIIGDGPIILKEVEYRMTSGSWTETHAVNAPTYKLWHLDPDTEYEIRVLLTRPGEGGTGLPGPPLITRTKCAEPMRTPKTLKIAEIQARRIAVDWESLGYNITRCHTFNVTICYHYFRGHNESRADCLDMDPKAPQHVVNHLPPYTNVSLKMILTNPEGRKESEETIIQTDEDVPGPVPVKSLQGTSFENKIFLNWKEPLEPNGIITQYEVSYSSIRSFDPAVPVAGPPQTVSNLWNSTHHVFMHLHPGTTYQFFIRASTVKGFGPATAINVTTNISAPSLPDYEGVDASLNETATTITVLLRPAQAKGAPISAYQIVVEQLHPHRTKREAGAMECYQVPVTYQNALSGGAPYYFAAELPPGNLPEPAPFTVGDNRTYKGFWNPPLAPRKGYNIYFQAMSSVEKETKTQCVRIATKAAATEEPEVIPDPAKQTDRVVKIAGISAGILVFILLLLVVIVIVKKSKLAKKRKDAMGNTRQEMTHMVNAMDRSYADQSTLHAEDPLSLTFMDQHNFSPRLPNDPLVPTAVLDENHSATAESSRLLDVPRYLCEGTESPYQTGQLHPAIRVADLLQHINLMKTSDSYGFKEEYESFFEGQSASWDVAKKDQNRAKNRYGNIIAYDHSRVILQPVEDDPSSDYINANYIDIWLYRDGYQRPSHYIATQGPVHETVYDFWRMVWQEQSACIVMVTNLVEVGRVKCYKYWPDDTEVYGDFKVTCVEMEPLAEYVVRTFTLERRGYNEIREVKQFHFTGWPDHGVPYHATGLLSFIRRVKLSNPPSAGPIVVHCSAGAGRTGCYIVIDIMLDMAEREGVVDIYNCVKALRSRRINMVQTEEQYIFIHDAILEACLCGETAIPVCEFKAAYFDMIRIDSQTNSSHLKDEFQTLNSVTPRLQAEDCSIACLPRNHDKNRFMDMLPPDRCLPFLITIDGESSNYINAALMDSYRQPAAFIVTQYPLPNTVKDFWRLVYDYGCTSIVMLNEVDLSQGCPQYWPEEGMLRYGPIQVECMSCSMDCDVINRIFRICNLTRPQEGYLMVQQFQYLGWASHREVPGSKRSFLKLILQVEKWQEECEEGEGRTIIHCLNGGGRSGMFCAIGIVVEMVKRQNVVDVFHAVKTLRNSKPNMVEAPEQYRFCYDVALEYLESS

B1: YES (endogenous, from RA FLS lysates) (enzyme)
chain: not shown
B2: S-tagged-iPTPκ-D1051A, substrate-trapping mutant of the catalytic domain of RPTPκ (aa865-1156 of NP_002835.2) (enzyme, not shown: small tags and cut ends)
chain: HPAIRVADLLQHINLMKTSDSYGFKEEYESFFEGQSASWDVAKKDQNRAKNRYGNIIAYDHSRVILQPVEDDPSSDYINANYIDGYQRPSHYIATQGPVHETVYDFWRMIWQEQSACIVMVTNLVEVGRVKCYKYWPDDTEVYGDFKVTCVEMEPLAEYVVRTFTLERRGYNEIREVKQFHFTGWPAHGVPYHATGLLSFIRRVKLSNPPSAGPIVVHCSAGAGRTGCYIVIDIMLDMAEREGVVDIYNCVKALRSRRINMVQTEEQYIFIHDAILEACLCGETAIPVCEFK
notes: Numbering counts on NP_002835.2, which may differ from the canonical UniProt isoform; also called iPTPk-D1051A; iPTPK-D1051A

Columns and labels:
[1] = target: T1, C-terminally HA-tagged wild type (WT) …; test: pull-down of RA FLS lysates with immunoprecipitated HA-tagged RPTPκ, Western blotting
Experimental: In vitro Pull-Down Assay. HA-tagged WT RPTPκ was overexpressed in COS-1 cells. Cells were lysed in THE buffer (20 mM Tris-HCl pH 7.5, 150 mM NaCl, 5 mM EDTA pH 8.0 and 1% NP-40) containing 10 μg/mL aprotinin, 10 μg/mL leupeptin, 10 μg/mL soybean trypsin inhibitor, and 1 mM phenylmethylsulfonyl fluoride. RPTPκ was immunoprecipitated using anti-HA antibody (Covance, Princeton, N.J.). RA FLS were lysed in RIPA buffer containing 10 μg/mL aprotinin, 10 μg/mL leupeptin, 10 μg/mL soybean trypsin inhibitor, 1 mM phenylmethylsulfonyl fluoride and 5 mM iodoacetamide. Lysates were treated with 10 mM dithiothreitol for 10 min, and then diluted 10-fold in buffer containing 25 mM Tris-HCl pH 7.6, 150 mM NaCl and 1 mM ethylenediaminetetraacetic acid. Immunoprecipitates were incubated with RA FLS lysates for 3 hr at 4° C., washed in the dilution buffer, and subjected to Western blotting.
We next investigated if RPTPk directly interacts with and/or dephosphorylates SFKs. HA-tagged RPTPκ was immunoprecipitated from COS-1 cells and incubated in vitro with RA FLS lysates, and pull-down was subjected to Western blotting. Both full-length RPTPk immunoprecipitated from COS-1 cells and a recombinant substrate-trapping mutant of the RPTPk catalytic domain (iPTPk-D1051A) precipitated SRC from RA FLS lysates in pull-down assays, but not YES or FYN (SFKs also expressed in FLS).

[2] = target: B1; test: substrate-trapping pull-down of RA FLS lysates with agarose-bound S-tagged iPTPκ-D1051A, Western blotting
Experimental: (§1) Accordingly, cDNA (codon optimized for expression in E. coli [Genscript, Piscataway, N.J.]) encoding a substrate-trapping mutant of the catalytic domain of RPTPκ (iPTPK-D1051A, aa865-1156 of NP_002835.2) was cloned into the pET30c vector. S-tagged-iPTPK-D1051A was isolated from E. coli using S-protein agarose (EMD Millipore). RA FLS were lysed in RIPA buffer containing 10 μg/mL aprotinin, 10 μg/mL leupeptin, 10 μg/mL soybean trypsin inhibitor, 1 mM phenylmethylsulfonyl fluoride and 5 mM iodoacetamide. Lysates were treated with 10 mM dithiothreitol for 10 min, and then diluted 10-fold in buffer containing 25 mM Tris-HCl pH 7.6, 150 mM NaCl and 1 mM ethylenediaminetetraacetic acid. Agarose-bound S-tagged-iPTPκ-D1051A was incubated with RA FLS lysates for 3 hr at 4° C., washed in the dilution buffer, and subjected to Western blotting.

[3] = target: FYN (endogenous, from RA FLS lysates) (human, UniProt P06241 2-537, limits assumed); test: as above
FYN (endogenous, from RA FLS lysates), sequence (P06241 2-537 limits assumed): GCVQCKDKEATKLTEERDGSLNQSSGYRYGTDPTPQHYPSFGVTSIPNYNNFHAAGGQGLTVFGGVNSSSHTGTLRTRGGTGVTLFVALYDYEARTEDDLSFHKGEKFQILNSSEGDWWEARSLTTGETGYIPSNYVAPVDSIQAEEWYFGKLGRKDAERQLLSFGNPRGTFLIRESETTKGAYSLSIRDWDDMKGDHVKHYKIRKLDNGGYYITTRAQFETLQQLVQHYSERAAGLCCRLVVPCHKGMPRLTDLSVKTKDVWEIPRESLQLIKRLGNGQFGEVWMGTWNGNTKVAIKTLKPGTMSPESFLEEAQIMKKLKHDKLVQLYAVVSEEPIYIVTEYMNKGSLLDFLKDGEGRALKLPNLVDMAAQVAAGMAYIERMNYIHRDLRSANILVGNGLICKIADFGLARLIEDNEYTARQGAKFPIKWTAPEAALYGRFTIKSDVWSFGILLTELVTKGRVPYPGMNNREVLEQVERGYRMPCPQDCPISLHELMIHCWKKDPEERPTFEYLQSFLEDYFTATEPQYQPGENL
Experimental: as §1

| Binder | binding result [1] | binding result [2] | binding result [3] |
| --- | --- | --- | --- |
| B1 | no binding |  |  |
| B2 |  | no binding | no binding |
